{"source": "patent US20230227567A1", "about": "(SELVAX, published 2023)", "key": {"[1]": {"biological_target": "T1, CD40 expressed on the surface of human peripheral blood mononuclear cells (human, UniProt P25942 21-277)", "T1 construct": "Native CD40 on primary human cells (PBMC, B cells, monocyte-derived dendritic cells); also called native CD40 protein; CD40 on the surface of B cells", "T1 sequence (P25942 21-277 limits assumed)": "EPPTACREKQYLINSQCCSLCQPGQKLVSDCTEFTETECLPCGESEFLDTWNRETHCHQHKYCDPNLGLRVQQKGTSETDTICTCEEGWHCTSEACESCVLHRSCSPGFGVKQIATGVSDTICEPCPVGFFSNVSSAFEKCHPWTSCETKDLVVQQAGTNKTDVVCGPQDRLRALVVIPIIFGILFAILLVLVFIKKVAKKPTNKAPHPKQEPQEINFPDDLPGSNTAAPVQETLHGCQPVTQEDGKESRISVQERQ", "experiment": "flow cytometry on human PBMC", "experimental": "PMBC were stained with an anti-human CD19 antibody labelled with PE. […] Lymphocytes were gated based on FSC-A and SSC-A signals.\nFACS staining was carried out on 10⁶ human PBMC per well. […] Cells were washed twice with FACS buffer and resuspended in 20 μl of BV421 anti-mouse Ig diluted in FACS buffer and incubated for 30 minutes. Cells were washed twice with FACS buffer and resuspended in 20 μl of PE anti-human CD19 diluted in FACS buffer and incubated for 30 minutes. Cells were washed once with FACS buffer and once with PBS and resuspended in 100 μl of 1% formaldehyde in PBS and incubated for 20 minutes. Cells were washed twice with FACS buffer and resuspended in 200 μl of FACS buffer for analysis.\nFACS staining controls included an unstained control, PE anti-human CD19 and BV421 mouse anti-human Ig single stain controls and human IgG1 isotype control. Cell staining was analysed using a FACS Canto II flow cytometer (BD). PMT voltages and gates for analysis were set using the FACS staining controls."}, "[2]": {"biological_target": "T2, recombinant human CD40 extracellular domain with a C-terminal human IgG1 Fc domain and 6His tag (BioLegend) (human)", "T2 construct": "Bought reagent; also called CD40-Fc", "T2 sequence (P25942 21-193)": "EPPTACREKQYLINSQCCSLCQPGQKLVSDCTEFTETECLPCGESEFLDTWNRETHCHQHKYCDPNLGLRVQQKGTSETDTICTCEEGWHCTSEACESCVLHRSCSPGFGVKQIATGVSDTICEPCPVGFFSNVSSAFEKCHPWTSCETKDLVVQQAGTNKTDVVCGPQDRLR", "experiment": "SPR Biacore T200, SVX-3001 amine-coupled to CM5, CD40-Fc analyte, 1:1 model; value 1", "experimental": "(§1) Method: Kinetic analysis by surface plasmon resonance (SPR) was carried out using the Biacore T200 (GE Healthcare). HBS-EP+ buffer was used as running buffer throughout.\n(§2) Target immobilisation level: 600 RU. Wash solution: Ethanolamine.\n(§3) Injection parameters for the sample were contact time: 120 seconds, flow rate: 30 μI/min, dissociation time: 300 seconds. Injection parameters for regeneration were contact time: 30 seconds, flow rate: 30 μI/min, stabilisation period: 0 seconds. Regeneration solution was either 10 mM glycine-HCl buffer pH 1.5 or 50 mM NaOH. The concentrations of CD40-His and CD40-Fc used for the kinetic analysis were […]. The model 1:1 binding was used for curve fitting."}, "[3]": {"biological_target": "T2, recombinant human CD40 extracellular …", "experiment": "SPR Biacore T200, SVX-3001 amine-coupled to CM5, CD40-Fc analyte, 1:1 model; value 2", "experimental": "as §1, §2, §3"}, "[4]": {"biological_target": "T2, recombinant human CD40 extracellular …", "experiment": "SPR Biacore T200, SVX-3001 amine-coupled to CM5, CD40-Fc analyte, 1:1 model; value 3", "experimental": "as §1, §2, §3"}, "[5]": {"biological_target": "T3, recombinant human CD40 extracellular domain with C-terminal 6His tag (Novoprotein) (human)", "T3 construct": "Bought reagent; also called CD40-6His; CD40-His", "T3 sequence (P25942 21-193)": "as above", "experiment": "SPR Biacore T200, SVX-3001 amine-coupled to CM5, CD40-6His analyte, 1:1 model; value 1", "experimental": "as §1, §2, §3"}, "[6]": {"biological_target": "T3, recombinant human CD40 extracellular …", "experiment": "SPR Biacore T200, SVX-3001 amine-coupled to CM5, CD40-6His analyte, 1:1 model; value 2", "experimental": "as §1, §2, §3"}, "[7]": {"biological_target": "T3, recombinant human CD40 extracellular …", "experiment": "SPR Biacore T200, SVX-3001 amine-coupled to CM5, CD40-6His analyte, 1:1 model; value 3", "experimental": "as §1, §2, §3"}, "[8]": {"biological_target": "T2, recombinant human CD40 extracellular …", "experiment": "SPR Biacore T200, SVX-3001 amine-coupled to CM5, CD40-Fc analyte, 1:1 model; average of three", "experimental": "as §1, §2, §3"}, "[9]": {"biological_target": "T3, recombinant human CD40 extracellular …", "experiment": "SPR Biacore T200, SVX-3001 amine-coupled to CM5, CD40-6His analyte, 1:1 model; average of three", "experimental": "as §1, §2, §3"}}, "data": [{"binder": "Humanized anti-human CD-40 antibody SVX-3001 (antibody, human IgG1, kappa, V domains shown, Human IgG1 heavy chain constant region and human kappa light chain constant region; made in HEK 293T cells, used as supernatant or Protein G purified; also called humanised agonist anti-human CD40 antibody; Selvax01) VH: QVQLQQSGPGLVKPSQSLSLTCAVSGYSITTNYYWNWIRQAPGKGLEWVGYIRYDGTTYYAPSLKGRFSITRDTSKNQFFLQLTSVTPEDTATYYCARLDYWGQGTLVTVSS VL: DIVMTQSPLSLSVSLGDRASISCRSSQSLENSNGNTFLNWFQQKPGQSPQLLIYRVSNRFSGVPDRFSGSGSGTDFTLKISRVEAEDEGVYFCLQVTHVPYTFGGGTKLEIKR", "values": [{"measurement": "binding result", "setting": "[1]", "result": "binds"}, {"measurement": "Kd", "setting": "[2]", "result": 0.323, "unit": "nM"}, {"measurement": "koff", "setting": "[2]", "result": 0.000232, "unit": "s⁻¹"}, {"measurement": "kon", "setting": "[2]", "result": 717000, "unit": "M⁻¹ s⁻¹"}, {"measurement": "Kd", "setting": "[3]", "result": 1.12, "unit": "nM"}, {"measurement": "koff", "setting": "[3]", "result": 0.000555, "unit": "s⁻¹"}, {"measurement": "kon", "setting": "[3]", "result": 497000, "unit": "M⁻¹ s⁻¹"}, {"measurement": "Kd", "setting": "[4]", "result": 0.308, "unit": "nM"}, {"measurement": "koff", "setting": "[4]", "result": 0.000203, "unit": "s⁻¹"}, {"measurement": "kon", "setting": "[4]", "result": 661000, "unit": "M⁻¹ s⁻¹"}, {"measurement": "Kd", "setting": "[5]", "result": 5.33, "unit": "nM"}, {"measurement": "koff", "setting": "[5]", "result": 0.00381, "unit": "s⁻¹"}, {"measurement": "kon", "setting": "[5]", "result": 715000, "unit": "M⁻¹ s⁻¹"}, {"measurement": "Kd", "setting": "[6]", "result": 6.5, "unit": "nM"}, {"measurement": "koff", "setting": "[6]", "result": 0.00409, "unit": "s⁻¹"}, {"measurement": "kon", "setting": "[6]", "result": 628000, "unit": "M⁻¹ s⁻¹"}, {"measurement": "Kd", "setting": "[7]", "result": 6.51, "unit": "nM"}, {"measurement": "koff", "setting": "[7]", "result": 0.00375, "unit": "s⁻¹"}, {"measurement": "kon", "setting": "[7]", "result": 576000, "unit": "M⁻¹ s⁻¹"}, {"measurement": "Kd", "setting": "[8]", "result": 0.583, "unit": "nM"}, {"measurement": "koff", "setting": "[8]", "result": 0.00033, "unit": "s⁻¹"}, {"measurement": "kon", "setting": "[8]", "result": 621000, "unit": "M⁻¹ s⁻¹"}, {"measurement": "Kd", "setting": "[9]", "result": 6.11, "unit": "nM"}, {"measurement": "koff", "setting": "[9]", "result": 0.00388, "unit": "s⁻¹"}, {"measurement": "kon", "setting": "[9]", "result": 640000, "unit": "M⁻¹ s⁻¹"}]}]}
